Data as given in US20210363526A1, “Use of Non-Coding Nucleic Acid for Crop Improvement and Protection Against Microbes” (University of Kentucky Research Foundation, priority 2020, published 2021).
Entries after “also recorded” stand apart in the source; their conditions may differ.

Assays:
[1] = test system: Pseudomonas syringae DC 3000; assay: SAR (systemic acquired resistance) assay: local treatment, distal leaves challenged with virulent pathogen; assay type: in vivo, Arabidopsis; conditions: for SAR in ago1 plants: localized application to ago1 plants; for SAR in ago1 plants / SAR in ago7 plants / SAR in tas3a mutant plants: SA 500 μM, Pip 1000 μM, G3P 100 μM, DC3000 48 h later; for SAR in ago7 plants: localized application to ago7 plants; for SAR in tas3a mutant plants: localized application to tas3a plants, AzA 1000 μM
Experimental: Pathogen infection and collection of phloem exudate—Inoculations with Pseudomonas syringae DC 3000 were conducted as described before. The bacterial cultures were grown overnight in King's B medium containing rifampicin and/or kanamycin. For analysis of SAR, the primary leaves were inoculated with MgCl2 or the avr bacteria (10^7 cfu ml^−1) and, 48 h later, the systemic leaves were inoculated with vir bacteria (10^5 cfu m1^−1). Unless noted otherwise, samples from the systemic leaves were harvested at 3 dpi. Petiole exudates were collected in diethyl pyrocarbonate (DEPC) treated water as described earlier. […] PEX RNA was extracted using the TRIzol reagent, quantified using nanodrop and cDNA synthesized from PEX RNA was evaluated for contamination with leaf RNA by assaying for amplification of Rubisco genes. Each sample was run in triplicates and UBC9 expression levels were used as internal control for normalization. Cycle threshold values were calculated by SDS 2.3 software.
Chemical and RNA treatments—SA, G3P, AzA, and Pip treatments were carried out by using 500 μM, 100 μM, 1000 μM, and 1000 μM solutions, respectively. TAS3a RNA was suspended at a concentration of 0.0075-75 ng/μ1 of DEPC water and ˜40 μl was infiltrated per leaf. AzA was prepared in methanol and diluted in water. SA, G3P and Pip were prepared and diluted in water. All dilutions were freshly prepared prior to performing biological experiments.
Statistics and reproducibility—For pathogen assays, ˜16 plants/ genotype/treatment were analyzed in a single experiment. At least 3-4 technical replicates/genotype/treatment were plated. For metabolite quantification, ˜12 plants/genotype/treatment were analyzed in each experiment. Unless otherwise mentioned error bars indicate SD.

[2] = test system: auxin responsive factor (ARF) 3; assay: Real-time quantitative RT-PCR of ARF3 expression after TAS3a transcript application; assay type: in vivo, Arabidopsis; conditions: Col-0 plants, exogenous application, 24 h
Source text: FIGS. 9A-H show images and graphs illustrating that TAS3a RNA contains two overlapping open reading frames. (A) Nucleotide sequence of mature TAS3a RNA (SEQ ID NO: 1). Region shaded in purple and gray indicates overlapping open reading frames. Nucleotides shaded in yellow are miR390-AGO7 targeting sites on TAS3a transcript. Arrows indicate position of forward and reverse primers used for quantitative RT-PCR. Residues in red indicate alternate polyadenylation sites. (B) Real-time quantitative RT-PCR showing relative expression levels of ARF3 in Col-0 plants treated with buffer or Tas3a555 for 24 h. The error bars indicate SD (n=4). Results are representative of two independent experiments. Asterisks denote a significant difference (t test, P<0.0001). […] Fresh protoplasts (10^6/ml) were incubated with 2 μM ^32P-TAS3a555 for 1 h, analyzed microscopically before and after four washes and quantified for the amount of radiolabel. […]
RNA extraction, quantitative real-time PCR, and in vitro transcription—Small-scale extraction of RNA from two or three leaves (per sample) was performed with the TRIzol reagent (Invitrogen, CA), following the manufacturer's instructions. RNA quality and concentration were determined by gel electrophoresis and determination of A260. […] Quantitative RT-PCR was carried out as described before. […] Cycle threshold values were calculated by SDS 2.3 software.

[3] = test system: isolated protoplasts; assay: Uptake assay of 32P-TAS3a555 into isolated protoplasts; assay type: cell-based, Arabidopsis; conditions: protoplasts incubated with 2 μM 32P-TAS3a555 for 1 h
Source text: FIGS. 9A-H show images and graphs illustrating that TAS3a RNA contains two overlapping open reading frames. (A) Nucleotide sequence of mature TAS3a RNA (SEQ ID NO: 1). Region shaded in purple and gray indicates overlapping open reading frames. Nucleotides shaded in yellow are miR390-AGO7 targeting sites on TAS3a transcript. Arrows indicate position of forward and reverse primers used for quantitative RT-PCR. Residues in red indicate alternate polyadenylation sites. (B) Real-time quantitative RT-PCR showing relative expression levels of ARF3 in Col-0 plants treated with buffer or Tas3a555 for 24 h. The error bars indicate SD (n=4). Results are representative of two independent experiments. Asterisks denote a significant difference (t test, P<0.0001). (C) Uptake assays showing percentage of ^32P-TAS3a555 transported into isolated protoplasts. Fresh protoplasts (10^6/ml) were incubated with 2 μM ^32P-TAS3a555 for 1 h, analyzed microscopically before and after four washes and quantified for the amount of radiolabel. The experiment was repeated three times with similar results. (D) RNA gel electrophoresis of in vitro synthesized TAS3a transcripts used in this study. (E) Typical morphological phenotypes of DC3000 inoculated distal leaves of Col-0 and tas3a plants. […]

[4] = test system: Pip; assay: Pip quantification after localized TAS3a application; assay type: in vivo, Arabidopsis; conditions: Col-0, localized application
[5] = test system: ROS; assay: ROS (H2O2, DAB staining) after localized TAS3a application; assay type: in vivo, Arabidopsis; conditions: Col-0, localized application
Experimental: FIGS. 12A-D show graphs and images illustrating that exogenous application of TAS3a induces G3P but not SA, Pip, or ROS. (A) SA (left panel) and SAG (right panel) levels in Col-0 plants infiltrated with MgCl2, avrRpt2 or TAS3a transcripts. Leaf samples were collected 24 and 48 h post treatments. The error bars indicate SD (n=4). Asterisks denote a significant difference with respective mock-inoculated samples (t test, P<0.0001). (B) Pip levels in local tissues of Col-0 plants infiltrated with MgCl2 (mock), avrRpt2 or TAS3a transcripts. The leaves were sampled 48 h post treatments. Asterisks denote a significant difference with mock (t test, P<0.0001). The experiment was repeated two times with similar results. (C) H2O2 levels in local tissues of Col-0 plants after mock (MgCl2), pathogen (avrRpt2) or TAS3a treatments. The leaves were sampled 24 h post treatments and stained with DAB (3,3-diaminobenzidine). The experiment was repeated two times with similar results. (D) G3P levels in local tissues of water or 555 bp TAS3a transcript treated Col-0 plants. The leaves were sampled 24 h post treatments and the experiment was repeated two times with similar results. Asterisks denote a significant difference with respective mock-inoculated samples (t test, P<0.001).

[6] = test system: G3P; assay: G3P quantification after localized TAS3a application; assay type: in vivo, Arabidopsis; conditions: Col-0, localized application, 24 h
[7] = test system: SA; assay: SA quantification after localized TAS3a application; assay type: in vivo, Arabidopsis; conditions: Col-0, localized application

Molecule: O=C(O)C1CCCCN1 (stereo not drawn) [Pip, pipecolic acid]
- SAR in ago1 plants [1]: unable to restore SAR
- SAR in ago7 plants [1]: unable to restore SAR
- SAR in tas3a mutant plants [1]: did not restore SAR

Molecule: O=C(O)CCCCCCCC(=O)O [AzA, azelaic acid]
- SAR in tas3a mutant plants [1]: did not restore SAR

Molecule: O=P(O)(O)OCC(O)CO (stereo not drawn) [G3P, glycerol-3-phosphate]
- SAR in ago1 plants [1]: unable to restore SAR
- SAR in ago7 plants [1]: unable to restore SAR
- SAR in tas3a mutant plants [1]: did not restore SAR

Molecule: O=C(O)c1ccccc1O [SA, salicylic acid]
- SAR in ago1 plants [1]: unable to restore SAR
- SAR in ago7 plants [1]: unable to restore SAR
- SAR in tas3a mutant plants [1]: did not restore SAR

B1: TAS3a transcript: exogenously applied in vitro transcribed TAS3a RNA, length not stated at the place (figure legends: 555 nt) (nucleic acid, listed as Arabidopsis thaliana)
chain: AUCCCACCGUUUCUUAAGACUCUCUCUCUUUCUGUUUUCUAUUUCUCUCUCUCUCAAAUGAAAGAGAGAGAAGAGCUCCCAUGGAUGAAAUUAGCGAGACCGAAGUUUCUCCAAGGCAUUAAGGAAAACAUAACCUCCGUGAUGCAUAGAGAUUAUUGGAUCCGCUGUGCUGAGACAUUGAGUUUUUCUUCGGCAUUCCAGUUUCAAUGAUAAAGCGGUGUUAUCCUAUCUGAGCUUUUAGUCGGAUUUUUUCUUUUCAAUUAUUGUGUUUUAUCUAGAUGAUGCAUUUCAUUAUUCUCUUUUUCUUGACCUUGUAAGGCCUUUUCUUGACCUUGUAAGACCCCAUCUCUUUCUAAACGUUUUAUUAUUUUCUCGUUUUACAGAUUCUAUUCUAUCUCUUCUCAAUAUAGAAUAGAUAUCUAUCUCUACCUCUAAUUCGUUCGAGUCAUUUUCUCCUACCUUGUCUAUCCCUCCUGAGCUAAUCUCCACAUAUAUCUUUUGUUUGUUAUUGAUGUAUGGUUGACAUAAAUUCAAUAAAGAAGUUGACGUUUUUCU
- expression of TAS3a target gene ARF3 [2]: suppressed
- uptake in isolated protoplasts [3]: confirmed by uptake
- Pip accumulation [4]: did not induce
- Pip accumulation ([4]; listed as TAS3a): not
- SAR induction in wild-type plants ([1]; localized application to wild-type Col-0, virulent DC3000 inoculated on distal leaves 48 h post-local treatment, transcripts 0.039 nmol/ml, Tasi-ARFs 1 μM (figure legends)): confer robust SAR; also recorded: able to induce SAR
- ROS accumulation [5]: did not induce
- ROS accumulation ([5]; listed as TAS3a): not
- G3P levels [6]: did increase
- G3P levels ([6]; listed as TAS3a): induces
- SA accumulation [7]: did not induce
- SA accumulation ([7]; listed as TAS3a): not
